Data as given in publication PMC9127447.

Target: His-tagged dynamin 2b (dynamin 2-WT, baculovirus) (rat)
Assay: not stated; polymerization of recombinant (baculovirus) dynamin 2 with or without Bis-T-23; method in Supplementary Figures S2E, F

B1: His-tagged dynamin 2b (dynamin 2-WT, baculovirus) (enzyme)
chain: MGNRGMEELIPLVNKLQDAFSSIGQSCHLDLPQIAVVGGQSAGKSSVLENFVGRDFLPRGSGIVTRRPLILQLIFSKTEYAEFLHCKSKKFTDFDEVRQEIEAETDRVTGTNKGISPVPINLRVYSPHVLNLTLIDLPGITKVPVGDQPPDIEYQIKDMILQFISRESSLILAVTPANMDLANSDALKLAKEVDPQGLRTIGVITKLDLMDEGTDARDVLENKLLPLRRGYIGVVNRSQKDIEGRKDIRAALAAERKFFLSHPAYRHMADRMGTPHLQKTLNQQLTNHIRESLPTLRSKLQSQLLSLEKEVEEYKNFRPDDPTRKTKALLQMVQQFGVDFEKRIEGSGDQVDTLELSGGARINRIFHERFPFELVKMEFDEKDLRREISYAIKNIHGVRTGLFTPDMAFEAIVKKQLVKLKEPSLKCVDLVVSELATVIKKCAEKLSSYPRLREETERIVTTYIREREGRTKDQILLLIDIEQSYINTNHEDFIGFANAQQRSTQLNKKRAIPNQGEILVIRRGWLTINNISLMKGGSKEYWFVLTAESLSWYKDEEEKEKKYMLPLDNLKIRDVEKGFMSNKHVFAIFNTEQRNVYKDLRQIELACDSQEDVDSWKASFLRAGVYPEKDQAENEDGAQENTFSMDPQLERQVETIRNLVDSYVAIINKSIRDLMPKTIMHLMINNTKAFIHHELLAYLYSSADQSSLMEESAEQAQRRDDMLRMYHALKEALNIIGDISTSTVSTPVPPPVDDTWLQNTSSHSPTPQRRPVSSVHPPGRPPAVRGPTPGPPLIPMPVGATSSFSAPPIPSRPGPQNVFANNDPFSAPPQIPSRPARIPPGIPPGVPSRRAPAAPSRPTIIRPAEPSLLD
modifications: not checked
- fold increase of polymerization with Bis-T-23 against without Bis-T-23: 30 times
